Here are results for 15 molecules from PMC5651854, “Reconstitution of human shelterin complexes reveals unexpected stoichiometry and dual pathways to enhance telomerase processivity” (Nature Communications, 2017).

For one experiment, the target named is mCherry-TIN2S, Q9BSI4-2. Nature of the experiment: LacI-LacO array fluorescence colocalization in cells. Particulars: U2OS 2-6-3 cell line; n > 50 nuclei per construct from 3 biological replicates; parent: est. 0.90; read off a plot.
Another experiment concerns the target Human TIN2 (human) (UniProt Q9BSI4). Nature of the experiment: SEC-MALS; purified proteins or co-expressed, purified complexes at 1 mg ml^−1, 100 µl on Superose 6 Increase 10/300 GL, 0.5 ml min^−1, 25 °C, 50 mM HEPES pH 7.5, 300 mM NaCl, 1 mM TCEP. Background: In gel filtration, larger molecules generally elute earlier.
In experiment [1] the target is T1, Human TRF1 (human), P54274.
T1 chain: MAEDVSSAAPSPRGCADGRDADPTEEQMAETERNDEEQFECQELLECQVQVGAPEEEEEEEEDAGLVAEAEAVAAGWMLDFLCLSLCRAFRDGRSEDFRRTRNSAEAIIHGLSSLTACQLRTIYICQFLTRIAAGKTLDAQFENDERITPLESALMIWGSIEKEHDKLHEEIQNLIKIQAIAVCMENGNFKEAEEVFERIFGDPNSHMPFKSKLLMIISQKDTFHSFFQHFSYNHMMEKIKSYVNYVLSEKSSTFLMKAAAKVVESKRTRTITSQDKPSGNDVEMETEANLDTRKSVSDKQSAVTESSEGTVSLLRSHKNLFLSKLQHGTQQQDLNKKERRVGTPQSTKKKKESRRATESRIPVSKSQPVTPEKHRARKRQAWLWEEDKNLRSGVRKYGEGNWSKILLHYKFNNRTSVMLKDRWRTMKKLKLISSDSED
The experiment is described as above. As to conditions: remark: other sources report otherwise.

Experiment [2] concerns the target eGFP–TPP1_(480–544)–LacI (human). Nature of the experiment: LacI–LacO array recruitment (fluorescence colocalisation); eGFP–TPP1–LacI constructs tethered to a LacO array in U2-OS 2-6-3 cells, co-transfected with mCherry-TIN2S; fixed 24 h after transfection; fraction of nuclei with mCherry at the single GFP focus.
In the next experiment the target is eGFP–TPP1–LacI (human) (UniProt Q96AP0). The description is as above.
eGFP–TPP1–LacI (human), sequence (Q96AP0 whole entry): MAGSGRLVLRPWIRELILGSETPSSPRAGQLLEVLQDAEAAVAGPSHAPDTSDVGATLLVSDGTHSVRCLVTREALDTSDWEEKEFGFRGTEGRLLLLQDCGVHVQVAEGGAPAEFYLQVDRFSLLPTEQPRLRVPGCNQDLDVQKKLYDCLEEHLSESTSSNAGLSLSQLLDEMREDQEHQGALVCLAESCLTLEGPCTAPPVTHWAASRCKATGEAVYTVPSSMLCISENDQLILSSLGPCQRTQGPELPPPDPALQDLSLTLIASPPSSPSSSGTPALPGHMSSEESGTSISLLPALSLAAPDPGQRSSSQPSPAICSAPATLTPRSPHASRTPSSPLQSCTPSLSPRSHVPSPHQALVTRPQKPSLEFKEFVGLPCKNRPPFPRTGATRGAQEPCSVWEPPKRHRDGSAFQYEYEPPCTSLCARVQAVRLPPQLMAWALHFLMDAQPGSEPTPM
Experiment [3] concerns the target T2, Human TRF2 (human), Q15554.
T2 chain: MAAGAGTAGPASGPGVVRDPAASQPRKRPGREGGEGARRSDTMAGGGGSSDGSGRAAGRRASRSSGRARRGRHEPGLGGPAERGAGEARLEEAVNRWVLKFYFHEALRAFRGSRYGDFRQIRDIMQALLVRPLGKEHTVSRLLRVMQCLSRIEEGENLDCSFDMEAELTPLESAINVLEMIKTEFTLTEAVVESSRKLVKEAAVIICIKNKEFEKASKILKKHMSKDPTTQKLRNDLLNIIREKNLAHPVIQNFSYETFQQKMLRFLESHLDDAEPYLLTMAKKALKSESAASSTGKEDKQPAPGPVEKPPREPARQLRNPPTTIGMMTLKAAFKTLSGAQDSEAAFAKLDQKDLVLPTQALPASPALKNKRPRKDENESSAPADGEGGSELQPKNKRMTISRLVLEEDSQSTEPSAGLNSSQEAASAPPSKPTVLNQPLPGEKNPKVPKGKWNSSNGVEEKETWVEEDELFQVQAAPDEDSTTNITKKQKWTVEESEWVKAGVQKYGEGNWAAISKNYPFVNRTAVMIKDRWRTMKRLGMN
Nature of the experiment: SEC-MALS; purified proteins or co-expressed, purified complexes at 1 mg ml^−1, 100 µl on Superose 6 Increase 10/300 GL, 0.5 ml min^−1, 25 °C, 50 mM HEPES pH 7.5, 300 mM NaCl, 1 mM TCEP. As to conditions: remark: other sources report otherwise.

The target in another experiment is T3, Human TIN2 (human, UniProt Q9BSI4-2 1-354).
T3 construct: cDNA cloned into pFastBac1; called full-length in the discussion; not shown: His6, N-terminal, cleaved; MBP, N-terminal, cleaved
T3 sequence (looked up): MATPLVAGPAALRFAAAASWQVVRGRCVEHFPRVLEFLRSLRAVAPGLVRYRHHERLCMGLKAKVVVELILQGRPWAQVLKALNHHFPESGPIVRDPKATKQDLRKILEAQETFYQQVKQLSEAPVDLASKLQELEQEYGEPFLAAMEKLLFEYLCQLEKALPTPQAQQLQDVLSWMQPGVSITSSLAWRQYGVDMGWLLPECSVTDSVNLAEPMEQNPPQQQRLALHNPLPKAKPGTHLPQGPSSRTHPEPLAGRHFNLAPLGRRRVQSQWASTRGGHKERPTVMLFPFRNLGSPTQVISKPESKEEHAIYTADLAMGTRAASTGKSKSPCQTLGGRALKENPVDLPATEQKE
The experiment is described as above. Particulars: both partners purified.

eGFP–TPP1_(480–544)–LacI (human), sequence (Q96AP0 whole entry): as the sequence (Q96AP0 whole entry) above

Consider “eGFP–TPP1–LacI (from UniProt Q96AP0) NAAIRS 492 (six residues starting at 492 replaced by NAAIRS)”, for which the other: fraction of colocalization with mCherry-TIN2S, Q9BSI4-2 was 0.93.

“eGFP–TPP1–LacI (from UniProt Q96AP0) NAAIRS 498 (six residues starting at 498 replaced by NAAIRS)”: the other: fraction of colocalization with mCherry-TIN2S, Q9BSI4-2 was 0.88.

For the molecule “eGFP–TPP1–LacI (from UniProt Q96AP0) NAAIRS 504 (six residues starting at 504 replaced by NAAIRS)”, the other: fraction of colocalization with mCherry-TIN2S, Q9BSI4-2 was 0.92.

“eGFP–TPP1–LacI (from UniProt Q96AP0) NAAIRS 516 (six residues starting at 516 replaced by NAAIRS)”: the other: fraction of colocalization with mCherry-TIN2S, Q9BSI4-2 is 0.93.

For the molecule “eGFP–TPP1–LacI (from UniProt Q96AP0) NAAIRS 539 (six residues starting at 539 replaced by NAAIRS)”, in the experiment with mCherry-TIN2S, Q9BSI4-2, the other: fraction of colocalization was determined as 0.96.

With “eGFP–TPP1–LacI (from UniProt Q96AP0) NAAIRS 522 (six residues starting at 522 replaced by NAAIRS)”, in the experiment with mCherry-TIN2S, Q9BSI4-2, the other: fraction of colocalization is 0.87.

On to “eGFP–TPP1–LacI (from UniProt Q96AP0) NAAIRS 510 (six residues starting at 510 replaced by NAAIRS)”, for which the other: fraction of colocalization with mCherry-TIN2S, Q9BSI4-2 was found to be 0.88.

As for “eGFP–TPP1–LacI (from UniProt Q96AP0) NAAIRS 486 (six residues starting at 486 replaced by NAAIRS)”, the other: fraction of colocalization with mCherry-TIN2S, Q9BSI4-2 was determined as 0.94.

“eGFP–TPP1–LacI (from UniProt Q96AP0) NAAIRS 480 (six residues starting at 480 replaced by NAAIRS)”: in the experiment with mCherry-TIN2S, Q9BSI4-2, the other: fraction of colocalization came out at 0.92.

In the experiment with Human TIN2 (human), “Human TPP1 (from UniProt Q96AP0 1-458) (natural protein)” gave a stoichiometry N (TPP1 per TIN2) of 1.

On to “eGFP–TPP1–LacI (from UniProt Q96AP0) NAAIRS 534 (six residues starting at 534 replaced by NAAIRS)”, for which the other: fraction of colocalization with mCherry-TIN2S, Q9BSI4-2 stood at 0.93.

B1: Human TRF1, P54274-1 1-439 (natural protein)
chain: MAEDVSSAAPSPRGCADGRDADPTEEQMAETERNDEEQFECQELLECQVQVGAPEEEEEEEEDAGLVAEAEAVAAGWMLDFLCLSLCRAFRDGRSEDFRRTRNSAEAIIHGLSSLTACQLRTIYICQFLTRIAAGKTLDAQFENDERITPLESALMIWGSIEKEHDKLHEEIQNLIKIQAIAVCMENGNFKEAEEVFERIFGDPNSHMPFKSKLLMIISQKDTFHSFFQHFSYNHMMEKIKSYVNYVLSEKSSTFLMKAAAKVVESKRTRTITSQDKPSGNDVEMETEANLDTRKSVSDKQSAVTESSEGTVSLLRSHKNLFLSKLQHGTQQQDLNKKERRVGTPQSTKKKKESRRATESRIPVSKSQPVTPEKHRARKRQAWLWEEDKNLRSGVRKYGEGNWSKILLHYKFNNRTSVMLKDRWRTMKKLKLISSDSED
B1 returned a stoichiometry N (subunits in the oligomer) in experiment [1] of 2.

B2: mCherry-TIN2S (natural protein)
chain: MATPLVAGPAALRFAAAASWQVVRGRCVEHFPRVLEFLRSLRAVAPGLVRYRHHERLCMGLKAKVVVELILQGRPWAQVLKALNHHFPESGPIVRDPKATKQDLRKILEAQETFYQQVKQLSEAPVDLASKLQELEQEYGEPFLAAMEKLLFEYLCQLEKALPTPQAQQLQDVLSWMQPGVSITSSLAWRQYGVDMGWLLPECSVTDSVNLAEPMEQNPPQQQRLALHNPLPKAKPGTHLPQGPSSRTHPEPLAGRHFNLAPLGRRRVQSQWASTRGGHKERPTVMLFPFRNLGSPTQVISKPESKEEHAIYTADLAMGTRAASTGKSKSPCQTLGGRALKENPVDLPATEQKE
Take B2: the fraction of LacO sites with colocalisation (in experiment [2]; in the experiment with eGFP–TPP1–LacI (human)) was 90% each time.

B3: Human TRF2, Q15554 1-542 (natural protein)
chain: MAAGAGTAGPASGPGVVRDPAASQPRKRPGREGGEGARRSDTMAGGGGSSDGSGRAAGRRASRSSGRARRGRHEPGLGGPAERGAGEARLEEAVNRWVLKFYFHEALRAFRGSRYGDFRQIRDIMQALLVRPLGKEHTVSRLLRVMQCLSRIEEGENLDCSFDMEAELTPLESAINVLEMIKTEFTLTEAVVESSRKLVKEAAVIICIKNKEFEKASKILKKHMSKDPTTQKLRNDLLNIIREKNLAHPVIQNFSYETFQQKMLRFLESHLDDAEPYLLTMAKKALKSESAASSTGKEDKQPAPGPVEKPPREPARQLRNPPTTIGMMTLKAAFKTLSGAQDSEAAFAKLDQKDLVLPTQALPASPALKNKRPRKDENESSAPADGEGGSELQPKNKRMTISRLVLEEDSQSTEPSAGLNSSQEAASAPPSKPTVLNQPLPGEKNPKVPKGKWNSSNGVEEKETWVEEDELFQVQAAPDEDSTTNITKKQKWTVEESEWVKAGVQKYGEGNWAAISKNYPFVNRTAVMIKDRWRTMKRLGMN
In experiment [3], B3 had a stoichiometry N (subunits in the oligomer) of 2.

B4: Human TRF2 (natural protein, UniProt Q15554 1-542, looked up)
chain: MAAGAGTAGPASGPGVVRDPAASQPRKRPGREGGEGARRSDTMAGGGGSSDGSGRAAGRRASRSSGRARRGRHEPGLGGPAERGAGEARLEEAVNRWVLKFYFHEALRAFRGSRYGDFRQIRDIMQALLVRPLGKEHTVSRLLRVMQCLSRIEEGENLDCSFDMEAELTPLESAINVLEMIKTEFTLTEAVVESSRKLVKEAAVIICIKNKEFEKASKILKKHMSKDPTTQKLRNDLLNIIREKNLAHPVIQNFSYETFQQKMLRFLESHLDDAEPYLLTMAKKALKSESAASSTGKEDKQPAPGPVEKPPREPARQLRNPPTTIGMMTLKAAFKTLSGAQDSEAAFAKLDQKDLVLPTQALPASPALKNKRPRKDENESSAPADGEGGSELQPKNKRMTISRLVLEEDSQSTEPSAGLNSSQEAASAPPSKPTVLNQPLPGEKNPKVPKGKWNSSNGVEEKETWVEEDELFQVQAAPDEDSTTNITKKQKWTVEESEWVKAGVQKYGEGNWAAISKNYPFVNRTAVMIKDRWRTMKRLGMN
notes: called full-length in the discussion; predicted dimer mass printed as 119 kDa; source: Tni insect cells (baculovirus), alone or co-expressed with other shelterin proteins, purified (final SEC)
One may read the stoichiometry N as the number of molecules, sites or subunits per partner or assembly. For B4, the “stoichiometry N” value with Human TIN2 was determined as 2 TRF2 per TIN2.
